Measured values published in article PMC7176432, “Single-molecule functional anatomy of endogenous HER2-HER3 heterodimers” (eLife, 2020).

Tested on: T1, Nc1ncnc2c1ncn2[C@@H]1O[C@H](COP(=O)(O)OP(=O)(O)OP(=O)(O)O)[C@@H](O)[C@H]1O
T1 construct: entire endogenous HER2, ligand-free HER2 complexes immunoprecipitated from SKBR3 cells
Assay: Michaelis-Menten titration of ATP, single-molecule pTyr1196 immunolabeling (KM)
Format: biochemical, Homo sapiens
Conditions: Mg2+

Q: Which Km does the source give for HER2 (Homo sapiens) here?
A: Its Km is 16.46 µM.
